Source: paper PMC11164899, “A novel inhibitory BAK antibody enables assessment of non-activated BAK in cancer cells” (Cell Death and Differentiation, 2024)
Numbering of substitutions follows the chain as printed.

How the values were obtained:
[1] = target: T1, BAK, endogenous, in human leukaemia cell lines (Homo sapiens, UniProt Q16611); test: native gel or EMSA; untreated membrane fractions incubated with antibody on ice for 30 min, solubilized with 1% digitonin, BN-PAGE, blot for BAK (gel-shift); settings: one partner purified
T1 construct: BAK, endogenous in blood cancer cell lines established from patients with ALL or AML; the methods list RS4;11, MOLM-13, KG-1, HL-60, OCI-AML3, MV4;11 and THP-1; source: endogenous, membrane fractions of human ALL and AML cell lines, solubilized in 1% digitonin

[2] = target: T2, human BAK, full-length, in mitochondria-enriched membrane fractions of bak−/−bax−/− MEFs (Homo sapiens, UniProt Q16611); test: immunoprecipitation; membrane fractions of MEFs expressing hBAK, no cBID, solubilized in 1% digitonin, pre-cleared; Protein G Sepharose with 4 μg antibody, 4 °C, 1-2 h; blot for BAK; settings: one partner purified
T2 construct: BAK, human, full-length; also called hBAK; source: stably expressed in SV40-immortalized bak−/−bax−/− MEFs; permeabilized cells or membrane fractions, solubilized in 1% digitonin for IP and BN-PAGE

hBAKΔN22ΔC25Δcys [3] = target: T3, hBAKΔN22ΔC25Δcys (Homo sapiens, Δcys (cysteine to serine; position C166 from memory, not given)); test: SPR; 14G6 (about 150 RU) captured on a Protein A chip; BAK injected in a threefold dilution series (0.45-1000 nM), single-cycle kinetics; 25 °C, DPBS + 0.005% Tween-20; 1:1 binding model; mean ± SD of three experiments; settings: both partners purified
T3 construct: BAK, human, lacking the N-terminal 22 residues and the C-terminal 25 residues (transmembrane anchor); wild-type cysteine residues replaced with serine; also called BAKΔTM; source: E. coli BL21 (DE3), purified (glutathione resin, HRV-3C cleavage, SEC Superdex S75)
T3 chain: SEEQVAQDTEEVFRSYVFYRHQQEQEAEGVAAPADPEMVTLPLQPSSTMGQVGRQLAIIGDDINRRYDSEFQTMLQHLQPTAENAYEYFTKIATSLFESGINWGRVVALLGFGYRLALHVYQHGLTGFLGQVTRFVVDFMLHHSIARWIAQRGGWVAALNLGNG

hBAKΔN22ΔC25Δcys M60G = target: T4, hBAKΔN22ΔC25Δcys M60G (Homo sapiens, M60G | Δcys (cysteine to serine; position C166 from memory, not given)); test: as above; settings: both partners purified
T4 construct: BAK, human, ΔN22ΔC25, wild-type cysteine residues replaced with serine, M60G; also called hBAK M60G; BAK M60G; source: E. coli BL21 (DE3), purified (glutathione resin, HRV-3C cleavage, SEC Superdex S75)
T4 chain: T3 chain with M38G

hBAKΔN22ΔC25Δcys M60W = target: T5, hBAKΔN22ΔC25Δcys M60W (Homo sapiens, M60W | Δcys (cysteine to serine; position C166 from memory, not given)); test: as above; settings: both partners purified
T5 construct: BAK, human, ΔN22ΔC25, wild-type cysteine residues replaced with serine, M60W; also called hBAK M60W; BAK M60W; source: E. coli BL21 (DE3), purified (glutathione resin, HRV-3C cleavage, SEC Superdex S75)
T5 chain: T3 chain with M38W

mBAKΔN20ΔC25Δcys = target: T6, mBAKΔN20ΔC25Δcys (Mus musculus, stabilised); test: as above; settings: both partners purified
T6 construct: BAK, mouse, lacking the N-terminal 20 and the C-terminal 25 residues; wild-type cysteine residues replaced with serine; also called mouse BAK; source: E. coli BL21 (DE3), purified (glutathione resin, HRV-3C cleavage, SEC Superdex S75)
T6 chain: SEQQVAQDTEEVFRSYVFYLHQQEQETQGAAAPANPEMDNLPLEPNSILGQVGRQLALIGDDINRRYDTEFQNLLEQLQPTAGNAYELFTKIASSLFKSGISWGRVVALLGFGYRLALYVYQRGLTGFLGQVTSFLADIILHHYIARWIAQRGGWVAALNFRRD

hBAKΔN22ΔC25Δcys [4] = target: T3, hBAKΔN22ΔC25Δcys; test: SEC; 14G6 Fab mixed with a 1.5-fold excess of BAKΔTM; Superdex 200 Increase 10/300 in TBS; complex of ca 65 kDa; settings: both partners purified

T1 sequence (Q16611 whole entry): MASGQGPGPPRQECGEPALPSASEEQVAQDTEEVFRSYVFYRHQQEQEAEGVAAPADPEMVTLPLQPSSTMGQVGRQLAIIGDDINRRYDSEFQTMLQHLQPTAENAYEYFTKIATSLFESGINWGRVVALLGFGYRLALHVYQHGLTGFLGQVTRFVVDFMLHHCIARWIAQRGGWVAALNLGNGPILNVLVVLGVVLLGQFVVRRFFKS

B1: 14G6 antibody (antibody, V domains shown)
VH: EVKLVESGAELVRPGTSVKVSCKASGYAFTNYLIEWVKQRPGQGLEWIGVINPGSGGTNYNEKFKGKATLTADKSSSTAYMQLTSLTSDDSAVYFCASPSLYGSFDYWGQGTTVTVSS
VL: DIVMTQSHKFMSTSVGDRVSITCKASQDVGTAVAWYQQKPGQSPKLLIYWASTRHTGVPDRFTGSGSGTDFTLTISNVQSEDLADYFCQQYSSYRTFGGGTKLEIK
notes: mouse variable region, human constant region; The results call it a chimera with human constant regions; the immunoprecipitation methods call it '14G6 mouse monoclonal antibody'; Used as an AF488 conjugate for immunocytochemistry; also called clone 14G6; 14G6-AF488; source: mouse B cell cloning; recovered antibody variable regions expressed as chimeras containing human constant regions; copies: 2 …
In the case of B1, the binding result [1] is reported as “binds”, the binding result [2] is reported as “binds” and the Kd (hBAKΔN22ΔC25Δcys [3]) is reported as 10 nM. The koff (hBAKΔN22ΔC25Δcys [3]) was 7e-05 s⁻¹, the kon (hBAKΔN22ΔC25Δcys [3]) was 6000 M⁻¹ s⁻¹ and the Kd (hBAKΔN22ΔC25Δcys M60G) was 0.6 nM. For the same binder, the koff (hBAKΔN22ΔC25Δcys M60G) was 7e-05 s⁻¹, the kon (hBAKΔN22ΔC25Δcys M60G) was 110000 M⁻¹ s⁻¹ and the Kd (hBAKΔN22ΔC25Δcys M60W) was 9 nM. The koff (hBAKΔN22ΔC25Δcys M60W) was 5e-05 s⁻¹, the kon (hBAKΔN22ΔC25Δcys M60W) was 4900 M⁻¹ s⁻¹ and the Kd (mBAKΔN20ΔC25Δcys) was 1140 nM. For the same binder, the koff (mBAKΔN20ΔC25Δcys) was 0.00092 s⁻¹ and the kon (mBAKΔN20ΔC25Δcys) was 810 M⁻¹ s⁻¹.

B2: 14G6 Fab (Fab, V domains shown)
VH: B1 VH
VL: B1 VL
notes: Fab part of the heavy chain of m1; as the light chain of m1; also called Fab fragment of antibody 14G6; source: papain cleavage of the full-length antibody, purified by cation exchange (Mono S)
B2 was tested, and the “stoichiometry N” value (hBAKΔN22ΔC25Δcys [4]) was 1.
